Columns and labels:
Assay in all cases: cell-based or functional assay
[1] = target: HIV-1 Env of pseudovirus 235-47 (clade CRF02_AG) (HIV-1)
[2] = target: HIV-1 Env of pseudovirus BJOX015000.11.5 (clade CRF01_AE (T/F)) (HIV-1)
[3] = target: HIV-1 Env of pseudovirus 1006_11_C3_1601 (clade B (T/F)) (HIV-1)
[4] = target: HIV-1 Env of pseudovirus 249M B10 (clade C (T/F)) (HIV-1)
[5] = target: HIV-1 Env of pseudovirus 62357_14_D3_4589 (clade B (T/F)) (HIV-1)
[6] = target: HIV-1 Env of pseudovirus CNE20 (clade BC) (HIV-1)
[7] = target: HIV-1 Env of pseudovirus Ce1172_H1 (clade C (T/F)) (HIV-1)
[8] = target: HIV-1 Env of pseudovirus Ce1176_A3 (clade C (T/F)) (HIV-1)
[9] = target: HIV-1 Env of pseudovirus Du422.1 (clade C) (HIV-1)
[10] = target: HIV-1 Env of pseudovirus HIV-001428-2.42 (clade C) (HIV-1)
[11] = target: HIV-1 Env of pseudovirus HIV-16845-2.22 (clade C) (HIV-1)
[12] = target: HIV-1 Env of pseudovirus MS208.A1 (clade A) (HIV-1)
[13] = target: HIV-1 Env of pseudovirus Q259.d2.17 (clade A) (HIV-1)
[14] = target: HIV-1 Env of pseudovirus REJO4541.67 (clade B) (HIV-1)
[15] = target: HIV-1 Env of pseudovirus THRO4156.18 (clade B) (HIV-1)
[16] = target: HIV-1 Env of pseudovirus TRJO4551.58 (clade B) (HIV-1)
[17] = target: HIV-1 Env of pseudovirus ZM135M.PL10a (clade C) (HIV-1)
[18] = target: HIV-1 Env of pseudovirus ZM53M.PB12 (clade C) (HIV-1)
[19] = target: HIV-1 Env pseudovirus 0260.v5.c36 (HIV-1)
[20] = target: HIV-1 Env pseudovirus 0815.v3.c3 (HIV-1)
[21] = target: HIV-1 Env pseudovirus 191084 B7-19 (HIV-1)
[22] = target: HIV-1 Env pseudovirus 191955_A11 (HIV-1)
[23] = target: HIV-1 Env pseudovirus 231965.c01 (HIV-1)
[24] = target: HIV-1 Env pseudovirus 235-47 (HIV-1)
[25] = target: HIV-1 Env pseudovirus 3415.v1.c1 (HIV-1)
[26] = target: HIV-1 Env pseudovirus 620345.c01 (HIV-1)
[27] = target: HIV-1 Env pseudovirus 6811.v7.c18 (HIV-1)
[28] = target: HIV-1 Env pseudovirus 6952.v1.c20 (HIV-1)
[29] = target: HIV-1 Env pseudovirus BJOX025000.01.1 (HIV-1)
[30] = target: HIV-1 Env pseudovirus R1166.c01 (HIV-1)
[31] = target: HIV-1 Env pseudovirus X1254_c3 (HIV-1)
[32] = target: HIV-1 Env pseudovirus X1632_S2_B10 (HIV-1)

PG9 (antibody)
IC50, titer in TZM.bl cells [1]: 0.233 µg/mL | IC80, titer in TZM.bl cells [1]: 1.2 µg/mL | IC50, titer in TZM.bl cells [2]: 0.322 µg/mL | IC80, titer in TZM.bl cells [2]: 1.49 µg/mL

N49P18.1 (antibody)
IC50 [3]: 2.8 µg/mL | IC80 [3]: 9.66 µg/mL | MPI [3]: 99 | IC50 [4]: 5.71 µg/mL | IC80 [4]: 23.1 µg/mL | MPI [4]: 94 | IC50 [5]: 10.4 µg/mL | IC80 [5]: 48 µg/mL | MPI [5]: 82 | IC50 [6]: 1.33 µg/mL | IC80 [6]: 6.36 µg/mL | MPI [6]: 100 | IC50 [7]: 46.4 µg/mL | IC80 [7]: > 50 µg/mL | MPI [7]: 52 | IC50 [8]: 32.5 µg/mL | IC80 [8]: > 50 µg/mL | MPI [8]: 61 | IC50 [9]: 21.5 µg/mL | IC80 [9]: > 50 µg/mL | MPI [9]: 75 | IC50 [10]: 1.13 µg/mL | IC80 [10]: 8.31 µg/mL | MPI [10]: 100 | IC50 [11]: > 50 µg/mL | IC80 [11]: > 50 µg/mL | MPI [11]: 23 | IC50 [12]: 8.31 µg/mL | IC80 [12]: 33.3 µg/mL | MPI [12]: 88 | IC50 [13]: > 50 µg/mL | IC80 [13]: > 50 µg/mL | MPI [13]: 37 | IC50 [14]: 4.08 µg/mL | IC80 [14]: 30.1 µg/mL | MPI [14]: 89 | IC50 [15]: > 50 µg/mL | IC80 [15]: > 50 µg/mL | MPI [15]: 19 | IC50 [16]: 4.44 µg/mL | IC80 [16]: 14.7 µg/mL | MPI [16]: 99 | IC50 [17]: > 50 µg/mL | IC80 [17]: > 50 µg/mL | MPI [17]: 46 | IC50 [18]: 1.3 µg/mL | IC80 [18]: 4.51 µg/mL | MPI [18]: 99

10-1074 (antibody)
IC50, titer in TZM.bl cells [1]: 0.05 µg/mL | IC80, titer in TZM.bl cells [1]: 0.163 µg/mL | IC50, titer in TZM.bl cells [2]: > 50 µg/mL | IC80, titer in TZM.bl cells [2]: > 50 µg/mL

N49P9 (antibody)
IC50 [19]: 0.466 µg/mL | IC80 [19]: 1.85 µg/mL | MPI [19]: 100 | IC50 [20]: 0.02 µg/mL | IC80 [20]: 0.057 µg/mL | MPI [20]: 100 | IC50 [21]: 0.042 µg/mL | IC80 [21]: 0.129 µg/mL | MPI [21]: 100 | IC50 [22]: > 50 µg/mL | IC80 [22]: > 50 µg/mL | MPI [22]: 35 | IC50 [23]: 0.253 µg/mL | IC80 [23]: 1.16 µg/mL | MPI [23]: 100 | IC50 [24]: 0.072 µg/mL | IC80 [24]: 0.271 µg/mL | MPI [24]: 98 | IC50 [25]: 0.137 µg/mL | IC80 [25]: 0.502 µg/mL | MPI [25]: 100 | IC50 [26]: > 50 µg/mL | IC80 [26]: > 50 µg/mL | MPI [26]: 9 | IC50 [27]: 0.249 µg/mL | IC80 [27]: 1.2 µg/mL | MPI [27]: 99 | IC50 [28]: 0.095 µg/mL | IC80 [28]: 0.258 µg/mL | MPI [28]: 100 | IC50 [29]: 0.055 µg/mL | IC80 [29]: 0.252 µg/mL | MPI [29]: 100 | IC50 [30]: 0.064 µg/mL | IC80 [30]: 0.223 µg/mL | MPI [30]: 100 | IC50 [31]: 0.04 µg/mL | IC80 [31]: 0.104 µg/mL | MPI [31]: 100 | IC50 [32]: 46.7 µg/mL | IC80 [32]: > 50 µg/mL | MPI [32]: 51

PG16 (antibody)
IC50, titer in TZM.bl cells [1]: 0.092 µg/mL | IC80, titer in TZM.bl cells [1]: 4.51 µg/mL | IC50, titer in TZM.bl cells [2]: 3.13 µg/mL | IC80, titer in TZM.bl cells [2]: > 50 µg/mL
